From patent US20250129166A1 (Five Prime, published 2025)
Changes are numbered by the printed parent chain. In names and notes the source's numbering stands.

T1: hVISTA multimer: monobiotinylated hVISTA ECD (Phe 33-Ala 194, Accession #AAH20568, polyhistidine) loaded on … (human, UniProt Q9H7M9 33-194, limits assumed, monobiotinylated; loaded at a 28:1 molar ratio onto PE-conjugated streptavidin dextramers)
T1 construct: also called hVISTA-loaded dextramers; recombinant VISTA multimer
T1 sequence (looked up): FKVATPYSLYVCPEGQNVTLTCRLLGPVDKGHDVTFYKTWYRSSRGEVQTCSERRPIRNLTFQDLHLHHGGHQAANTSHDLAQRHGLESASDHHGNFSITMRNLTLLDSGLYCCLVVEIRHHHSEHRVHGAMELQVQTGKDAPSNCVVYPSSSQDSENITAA

T2: human VISTA on cells (endogenous on human monocytes and AML3 cells; ectopic full-length on 293T cells) (human, UniProt Q9H7M9 33-311)
T2 sequence (looked up): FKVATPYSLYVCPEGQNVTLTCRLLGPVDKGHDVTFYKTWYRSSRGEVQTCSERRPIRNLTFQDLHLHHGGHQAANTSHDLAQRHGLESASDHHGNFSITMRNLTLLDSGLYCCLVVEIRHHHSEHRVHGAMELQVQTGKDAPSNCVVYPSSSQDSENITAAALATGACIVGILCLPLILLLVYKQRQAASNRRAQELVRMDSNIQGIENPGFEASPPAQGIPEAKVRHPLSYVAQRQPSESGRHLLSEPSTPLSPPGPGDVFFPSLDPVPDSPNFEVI

B1: P1-061029.IgG1.3 (antibody)
heavy: EVQLVESGGGLVQPGKSLRLSCAASGFTLDDYAMHWVRQAPGKGLEWVSGINWNSANIGYADSVKGRFTISRDNAKNSLYLQMNSLRTEDTALYYCAKVPGYSGGWIDAFDVWGQGTMVTVSSASTKGPSVFPLAPSSKSTSGGTAALGCLVKDYFPEPVTVSWNSGALTSGVHTFPAVLQSSGLYSLSSVVTVPSSSLGTQTYICNVNHKPSNTKVDKRVEPKSCDKTHTCPPCPAPEAEGAPSVFLFPPKPKDTLMISRTPEVTCVVVDVSHEDPEVKFNWYVDGVEVHNAKTKPREEQYNSTYRVVSVLTVLHQDWLNGKEYKCKVSNKALPAPIEKTISKAKGQPREPQVYTLPPSREEMTKNQVSLTCLVKGFYPSDIAVEWESNGQPENNYKTTPPVLDSDGSFFLYSKLTVDKSRWQQGNVFSCSVMHEALHNHYTQKSLSLSPG
light: not shown
notes: IgG1.3 = effectorless IgG1 (L234A, L235E, G237A); also called P1-061029 (parent); P1-061029 hIgG1.3f
B2: P1-068761.IgG1.3 (antibody)
heavy: B1 heavy with D30E, Y32E, A56E, N57E, G104H, F110E
light: not shown
notes: IgG1.3; also called P1-068761 hIgG1.3f; P1-0687617
B3: P1-068767_E100fF_D102V (antibody, human IgG1, kappa, V domains shown)
VH: EVQLVESGGGLVQPGKSLRLSCAASGFTLEDYAMHWVRQAPGKGLEWVSGIDWNSENIGYADSVKGRFTISRDNAKNSLYLQMNSLRTEDTALYYCAKVPGYSGGWIDAFDVWGQGTMVTVSS
VL: not shown
notes: also called P1-070920
B4: P1-068767_D52N_D102V (antibody, human IgG1, kappa, V domains shown)
VH: B3 VH with D52N, F110E
VL: not shown
notes: also called P1-070930
B5: P1-068767_D102V (antibody, human IgG1, kappa, V domains shown)
VH: B3 VH with F110E
VL: not shown
notes: also called P1-070912
B6: P1-068767_E55A_D102V (antibody, human IgG1, kappa, V domains shown)
VH: B3 VH with E56A, F110E
VL: not shown
notes: also called P1-070932
B7: P1-068767_E30D_D102V (antibody, human IgG1, kappa, V domains shown)
VH: B3 VH with E30D, F110E
VL: not shown
notes: also called P1-070926
B8: VISTA.5 (mAb1) (antibody, V domains shown)
VH: AVQLQESGPGLVRPSQSLSLTCTVTDYSITSDYAWNWIRQFPGSKLEWLGFIGYSGNTNYNPSLESRISITRHTSKNQFFLHLNSMTTEDTATYYCARSLYGGSHWYFDVWGAGTTVTVSS
VL: DIVLTQSPASLAVSLGQRATISCRGSESVEYYGTILMQWYQQKPGQPPKLLIYGASNVESGVPARFSGSGSGTDFSLNIHPVEEDDIAMYFCQQSRKVPWTFGGGTKLEIK
B9: P1-070916 (P1-068767_D52N_E55A) IgG1.3 (antibody, V domains shown)
VH: B3 VH with D52N, E56A, F110E, V112D
VL: not shown
notes: IgG1.3
B10: P1-070908 (P1-068767_E55A) IgG1.3 (antibody, V domains shown)
VH: B3 VH with E56A, F110E, V112D
VL: not shown
notes: IgG1.3
B11: P1-070906 (P1-068767_D52N) IgG1.3 (antibody, V domains shown)
VH: B3 VH with D52N, F110E, V112D
VL: not shown
notes: IgG1.3
B12: P1-068767_E100fF (antibody, human IgG1, kappa, V domains shown)
VH: B3 VH with V112D
VL: not shown
notes: also called P1-070910
B13: P1-068767_E30D_E100fF (antibody, human IgG1, kappa, V domains shown)
VH: B3 VH with E30D, V112D
VL: not shown
notes: also called P1-070924

These binders were tested against T3, monovalent hVISTA-ECD (amino acids 32-193 of SEQ ID NO: 1 with a 7xHis tail) (human, UniProt Q9H7M9 33-193) (assay: SPR, mAb on Protein A, 37C, pH 6.0).
T3 construct: also called huVISTA-His; human VISTA-ECD
Protocol: (§1) Binding of several preparations of each of the '029 progeny clones and of the parent '029 antibodies, formatted as IgG1.3 antibodies, to human VISTA at pH 6.0 and 7.4 was measured by Surface plasmon resonance (SPR). SPR analysis was performed to measure koff and KD binding affinity measurements for VISTA Abs at acidic and neutral pHs using a Biacore® T100 instrument (GE Healthcare). Protein A (ThermoFisher Scientific catalog #21181) was diluted to 20 μg/ml in 10 mM sodium acetate pH 4.5 and immobilized onto flow cells of a CM5 biosensor following the manufacturer's amine coupling protocol (GE Healthcare), targeting 2,000 RU immobilization density of Protein A per flow cell. SPR experiments were conducted at 37° C. using PBST (137 mM sodium chloride, 2.7 mM potassium chloride, 10 mM phosphate buffer, 0.05% Tween® 20) running buffer at pH 7.4 and 6.0. Antibodies were diluted to 25 nM in PBST pH 7.4, and were captured across active biosensor flow cells at 5 ul/min for 60 seconds. A concentration series of 50-5 nM monovalent hVISTA-ECD (SEQ ID NO: 325) was prepared in pH 7.4 and 6.0 running buffers, and was injected over the captured antibodies at 40 ul/min to measure association and dissociation. Two 15 second injections of 10 mM glycine pH 1.5 were used to regenerate the Protein A capture surface between assay cycles. Rate constants ka (kₒₙ) and kd (koff) were derived from reference flow cell and 0 nM blank-subtracted sensorgrams, and were fit to a 1:1 binding model in Biacore® T200 Evaluation Software v.2.0. The affinity constant, KD was calculated as the ratio of rate constants koff/kₒₙ for each VISTA antibody.

Row | Kd [nM] | kon [M⁻¹ s⁻¹] | Binder
1 | 7.4 | 780000 | B1
2 | 5.5 | 280000 | B2

The binders below were run against T3, monovalent hVISTA-ECD (amino acids …) (assay: SPR, mAb on Protein A, 37C, pH 7.4).
Protocol: as §1

Row | Kd [nM] | kon [M⁻¹ s⁻¹] | Binder
3 | 36 | 180000 | B1

The binders below were run against T3, monovalent hVISTA-ECD (amino acids …) (assay: SPR, mAb captured on Protein A, hVISTA-ECD analyte, 37 C, pH 7.4).
Protocol: (§2) Binding kinetics were measured using a Biacore® T100 instrument (GE Healthcare). Protein A (ThermoFisher Scientific catalog #21181) was diluted to 20 μg/ml in 10 mM sodium acetate pH 4.5 and immobilized onto flow cells of a CM5 biosensor following the manufacturer's amine coupling protocol (GE Healthcare), targeting 2,000 RU immobilization density of Protein A per flow cell. The assay was conducted at 37° C. using PBST (137 mM sodium chloride, 2.7 mM potassium chloride, 10 mM phosphate buffer, 0.05% Tween 20) running buffer at pH 7.4, 6.7 and 6.0. Antibodies were diluted to 25 nM in PBST pH 7.4, and were captured across active biosensor flow cells at 5 ul/min for 40 seconds. A concentration series of 100-10 nM monovalent hVISTA-ECD (SEQ ID NO: 325) was prepared in pH 7.4, 6.7 and 6.0 running buffers, and was injected over the captured antibodies at 40 ul/min to measure association and dissociation. Two 15 second injections of 10 mM glycine pH 1.5 were used to regenerate the Protein A capture surface between assay cycles. Rate constants ka (kon) and kd (koff) were derived from reference flow cell and 0 nM blank-subtracted sensorgrams, and were fit to a 1:1 binding model in Biacore® T200 Evaluation Software v.2.0.
(§3) The affinity constant, KD was calculated as the ratio of rate constants koff/kₒₙ for each VISTA antibody. The % Rmax was calculated to compare how pH affects an antibody's binding capacity for VISTA, and represents the measured maximal VISTA binding response relative to the expected maximal VISTA binding response. The % Rmax is defined as the ratio of the reference-subtracted ‘binding’ report point response at the end of the 100 nM VISTA injection for each antibody (Rmax) relative to the expected VISTA binding response (Rexp). Rexp is calculated as Rexp=[(VISTA-ECD molecular weight/mAb molecular weight)×(mAb ‘capture’ report point response (RUs)]×2 binding sites per mAb.

Row | koff [s⁻¹] | Binder
4 | 0.0083 | B3
5 | 0.0067 | B4
6 | 0.0092 | B5
7 | 0.01 | B6
8 | 0.011 | B7

The binders below were run against T1, hVISTA multimer: monobiotinylated … (assay: blocking of VISTA multimer binding to activated human CD4+ T cells, flow cytometry, pH 6.0).
Protocol: As a control, activated CD4+ T cells were stained with PE-conjugated streptavidin dextramers that were not loaded with hVISTA. The stained cells were washed with HBSS+MES and acquired on a flow cytometer. Data were analyzed using FlowJo™ software (BD Biosciences). […] Left, from darker gray to lighter, the filled histograms depict binding at pH 7.0, 6.5, 6.4, 6.3, 6.1, and 6.0. Some histograms are labeled with their corresponding pH. Non-VISTA control multimer binding at pH 6.0 is shown as the unfilled histogram. Right, graphed PE mean fluorescence intensities (MFI) of CD4+ T cells stained with hVISTA-loaded dextramers (circles) or with non-loaded dextramers (triangles) at various pH.
This blocking assay was performed as described in Example 4.

Row | IC50 (read off the curve) [mg/L] | Binder
9 | ~0.05 | B1
10 | ~0.03 | B2

Each binder was assayed against T2, human VISTA on cells (endogenous on …) (assay: cell-based or functional assay).

Row | Binder | EC50 of AML3 cell viability (Cell Titer Glo), endolysosome-dependent secondary antibody drug conjugate killing assay [mg/L]
11 | B8 | 0.485

These binders were tested against T3, monovalent hVISTA-ECD (amino acids …) (assay: SPR, mAb captured on Protein A, hVISTA-ECD analyte, 37 C, pH 6.7).
Protocol: as §2, §3

Row | koff [s⁻¹] | Binder
12 | 0.0044 | B1
13 | 0.0066 | B2

Each binder was assayed against T3, monovalent hVISTA-ECD (amino acids …) (assay: SPR, mAb captured on Protein A, hVISTA-ECD analyte, 37 C, pH 6.0).
Protocol: as §2, §3

Row | koff [s⁻¹] | Binder
14 | 0.0082 | B1
15 | 0.0082 | B3
16 | 0.0015 | B9
17 | 0.0023 | B10
18 | 0.0012 | B4
19 | 0.002 | B5
20 | 0.0015 | B11
21 | 0.002 | B6
22 | 0.003 | B7

Biological target: T3, monovalent hVISTA-ECD (amino acids …)
Assay: SPR, mAb captured on Protein A, hVISTA-ECD analyte, 37 C, pH 6.7
Remark: another data set of the same source
Protocol: as §2, §3

Row | koff [s⁻¹] | Binder
23 | 0.0044 | B1
24 | 0.026 | B12
25 | 0.0047 | B3
26 | 0.0055 | B9
27 | 0.0085 | B10
28 | 0.0018 | B4
29 | 0.0028 | B5
30 | 0.027 | B13
31 | 0.0067 | B11
32 | 0.0031 | B6
33 | 0.0035 | B7

These binders were tested against T3, monovalent hVISTA-ECD (amino acids …) (assay: SPR, mAb on Protein A, 37C, pH 6.0; pH 6.0).
Protocol: as §1

Row | Kd [nM] | koff [s⁻¹] | kon [M⁻¹ s⁻¹] | Binder
34 | 7.4 | 0.0017 | 230000 | B9
35 | 11 | 0.0025 | 220000 | B10
36 | 6.7 | 0.0016 | 240000 | B11

Biological target: T3, monovalent hVISTA-ECD (amino acids …)
Assay: SPR, mAb captured on Protein A, hVISTA-ECD analyte, 37 C, pH 6.0
Remark: another data set of the same source
Protocol: as §2, §3

Row | koff [s⁻¹] | Binder
37 | 0.0082 | B1
